Among the data in the supplement of paper PMC10567573 are protein stability index values, retold here.

The data set is described as follows: protein stability index of a GFP-peptide fusion (GPS, HEK-293T) (PSI 1-6); higher = more stable.
The mark [1] stands for this setting: treatment: DMSO, c terminus: a fixed tail appended.
[2] abbreviates: treatment: MLN4924 1 uM, 8 h, c terminus: a fixed tail appended.
The mark [3] stands for this setting: treatment: DMSO, c terminus: native.
Setting [4] is: treatment: MLN4924 1 uM, 8 h, c terminus: native.

± gives the standard deviation.
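Also: 24-mer peptide tiles fused after GFP, lentivirally expressed, FACS-sorted into six equal bins by GFP/DsRed ratio, decoded by Illumina sequencing, PSI is the read-weighted mean bin number.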

Consider EYSPEEESEPPAPNIRNMAPNSLS [TRAF3IP2], for which the protein stability index under setting [1] stood at 5.04 ± 0.36 and the protein stability index under setting [2] worked out at 5.07 ± 0.27.
Take FADEKNILHIMVKVVKGHRPELPP [RIPK4]: the protein stability index stood at 2.3 ± 0.32 under setting [1] and 2.36 ± 0.36 under setting [2].
Take FDECGITDDQLLALLPSLSHCSQL [PRAME]: the protein stability index amounted to 3.31 ± 0.15 under setting [1] and 3.56 ± 0.19 under setting [2].
Take FDTNAEGCILQWKKIYCRICMAQI [ZBED1]: the protein stability index came to 2.39 ± 0.65 under setting [1] and 2.04 ± 0.079 under setting [2].
In turn, FEKSRYETYIHLLAMKIKVGSDDL [PSD2] showed a protein stability index under setting [1] of 2.53 ± 1 and a protein stability index under setting [2] of 2.55 ± 0.61.
Consider FEQLPDDVAISANIADIEEKRGFT [NCF4], for which the protein stability index came to 5.03 ± 0.33 under setting [1] and 5.05 ± 0.21 under setting [2].
Turning to FEWTDSPNTAVSVHVSESSDDDEE [ACBD3], the protein stability index runs as follows: under setting [1], 5.53 ± 0.22; under setting [2], 5.56 ± 0.21.
Taken in the same sequence, the figures for FFCEGVKIIFRVGLVLLKHALGSP [TBC1D10A] were 1.98 ± 0.54 and 2.11 ± 0.36.
For FGHHHQRAWIPSENIQDITVNIHR [ZMYND11], the protein stability index by setting is: under setting [1], 2.78 ± 0.37; under setting [2], 2.69 ± 0.35.
As to FHGTRQYKFDPKTKRILTLQKANS [MMP1], the protein stability index under setting [1] stood at 2.38 ± 0.5 and the protein stability index under setting [2] was 2.6 ± 0.54.
Regarding FIMLLIGIVLPVFYLVYFKIQASG [LYSMD4], the protein stability index stood at 2.31 ± 0.22 under setting [1] and 2.01 ± 0.54 under setting [2].
The corresponding values for FIPSSHNDRDFLTRIFTEDRFAQD [PPEF2] are 2.58 ± 0.81 and 3.05 ± 0.64.
Taken in the same sequence, the figures for FKCNYCGKSFRQRPSLVIHLRIHT [ZNF449] were 3.15 ± 0.46 and 3.35 ± 0.24.
Regarding FKSLFGSIGDIESCKLVRDKITGQ [ELAVL3], the protein stability index is, setting by setting: under setting [1], 2.87 ± 0.38; under setting [2], 2.56 ± 0.15.
As for FMRTDPVCQKLLLDAMNYHLMPFR [KLHL14], the protein stability index is 2.25 ± 0.19 under setting [1] and 2.28 ± 0.3 under setting [2].
As for FPTDAPYPTTLGKDRECQSQSLAL [ZNF8], the protein stability index is, setting by setting: under setting [1], 4.07 ± 0.15; under setting [2], 4.05 ± 0.31.
With FQIAANLSMERYALVFGVNTFIAL [SLC19A2], the protein stability index runs as follows: under setting [1], 3.2 ± 0.18; under setting [2], 3.09 ± 0.17.
FRCLFEAEITQIQSHISDMSVILS [KRT71]: the protein stability index by setting is: under setting [1], 1.94 ± 0.14; under setting [2], 2.34 ± 0.37.
Consider FSLKTFKRKSEVERAVKRMRHLST [MATN2], for which the protein stability index amounted to 2.54 ± 0.51 under setting [1] and 2.82 ± 0.46 under setting [2].
On to FSVKFEVQAPRWGNPRALSFVLSS [OAS1], for which the protein stability index is, setting by setting: under setting [1], 2.94 ± 0.27; under setting [2], 3.01 ± 0.49.
Taken in the same sequence, the figures for FTRSQTLIQNGGEIDCVDKDGNTP [ANKRD44] were 4.74 ± 0.16 and 4.81 ± 0.21.
Turning to FWHDTLTEQLWRIFAGVHDEKAKP [TLE6], the protein stability index is 2.23 ± 0.41 under setting [1] and 2.41 ± 0.76 under setting [2].
Taken in the same sequence, the figures for GAAFRDHQLLEPIRDFEARKCPVH [TRIM29] were 3.73 ± 0.26 and 3.88 ± 0.17.
As for GADKEILTTKGEMPVQLTSRREIR [ANKRD40], the protein stability index by setting is: under setting [1], 4.83 ± 0.13; under setting [2], 4.95 ± 0.19.
The corresponding values for GAEPGTYLTGTINGDPESVASLHW [ADAMTS4] are 4.52 ± 0.87 and 3.67 ± 0.62.
As to GAEPSAPGGGGSPGACPALGTKSC [RTN3], the protein stability index was 5.36 ± 0.26 under setting [1] and 5.4 ± 0.26 under setting [2].
With GAGPPEPLRICPLHISVKEELDG [TRIM35], the protein stability index was 4.21 ± 0.32 under setting [3] and 4.56 ± 0.14 under setting [4].
For GAIAVFVYASDKEWIRFDQSNVLC [PTGFR], the protein stability index runs as follows: under setting [1], 3.02 ± 0.34; under setting [2], 2.87 ± 0.47.
GARQISYSIPEELEKGSFVGNISK [PCDHGA10]: the protein stability index turned out to be 4.13 ± 0.19 under setting [1] and 4.23 ± 0.17 under setting [2].
Regarding GAYDFPSPEWDTVTPEAKDLINKM [CAMK2D], the protein stability index under setting [1] was found to be 4.536 ± 0.038 and the protein stability index under setting [2] worked out at 4.07 ± 0.093.
On to GDEFSLREHELLCRADHGLLLERA [ISL2], for which the protein stability index under setting [1] amounted to 4.06 ± 0.49 and the protein stability index under setting [2] was 3.65 ± 0.35.
For GDTKRATPIEVLCENFPEMATYLR [CSNK1G3], the protein stability index under setting [1] stood at 3.04 ± 0.33 and the protein stability index under setting [2] amounted to 2.97 ± 0.38.
Turning to GERPRSEEDNELNLPNLAAAYSSI [GCH1], the protein stability index is, setting by setting: under setting [1], 4.71 ± 0.3; under setting [2], 4.75 ± 0.075.
The corresponding values for GEVPVLIHGENIICEATQIIDYLE [GDAP1] are 3.55 ± 0.29 and 3.6 ± 0.3.
Take GFSLEDPQTHSNRIYRMIKLGLGI [HSP90AB1]: the protein stability index under setting [1] amounted to 2.06 ± 0.42 and the protein stability index under setting [2] was found to be 2.29 ± 0.3.
Consider GFWRIDPQYAERLLSGAFKKRRLP [FOXJ1], for which the protein stability index by setting is: under setting [1], 2.56 ± 0.12; under setting [2], 2.4 ± 0.37.
GGCGGPRAWSQCGGGGLRAWSQRS [CPOX]: the protein stability index was determined as 2.73 ± 0.74 under setting [1] and 2.56 ± 0.46 under setting [2].
Taken in the same sequence, the figures for GGEGVEVELLHNTSYTRQACLVSC [SCNN1D] were 2.9 ± 0.2 and 2.55 ± 0.31.
Turning to GGGGAPRGRYGPPSRRSENRVVVS [SRSF1], the protein stability index under setting [1] worked out at 4.36 ± 0.16 and the protein stability index under setting [2] was 4.29 ± 0.12.
For the sequence GGIRGRAMALTSSMNWGINLLISL [SLC2A12], the protein stability index is, setting by setting: under setting [1], 2.26 ± 0.7; under setting [2], 2.54 ± 0.42.
As to GGKRRRDDISVDSLDFTKKILHTA [PPP2R2C], the protein stability index by setting is: under setting [1], 3.17 ± 0.21; under setting [2], 3.77 ± 0.36.
As to GGPFPLPYTAPGGYLDVGSKPMY [TBX6], the protein stability index is 3.12 ± 0.43 under setting [3] and 3.43 ± 0.2 under setting [4].
Regarding GGPQALVNIMRTYTYEKLLWTTSR [CTNNB1], the protein stability index under setting [1] was found to be 2.43 ± 0.6 and the protein stability index under setting [2] turned out to be 2.5 ± 0.27.
For the sequence GGQESSGLNLGKKISVPRDVMLEE [MYOZ1], the protein stability index reads like this: under setting [1], 5.07 ± 0.27; under setting [2], 5.1 ± 0.23.
On to GGTSSNNSEEEEDDDDEEEEVSEV [ANKRD17], for which the protein stability index is, setting by setting: under setting [1], 5.5 ± 0.23; under setting [2], 5.54 ± 0.16.
As to GHEEWVGSAYLFVESSLDKVVLSD [TRADD], the protein stability index turned out to be 2.41 ± 0.45 under setting [1] and 2.45 ± 0.55 under setting [2].
Taken in the same sequence, the figures for GHGADVLCLDLAPSETGNTFVSGG [GNB5] were 4.24 ± 0.084 and 4.33 ± 0.4.
On to GIVGLNNIKANDYANAVLQALSNV [USP39], for which the protein stability index is, setting by setting: under setting [1], 2.25 ± 0.42; under setting [2], 2.25 ± 0.45.
Take GKDVATQILEGELFDFDLEVKPVL [RSPH3]: the protein stability index runs as follows: under setting [1], 3.79 ± 0.087; under setting [2], 3.81 ± 0.46.
The corresponding values for GLAKCNGLSHSHDLSMDGLFGTIA [RIPK4] are 2.47 ± 0.43 and 2.38 ± 0.13.
Turning to GLAYDRKKVSKAAILARIKRTGDG [SCD], the protein stability index reads like this: under setting [1], 3.27 ± 0.24; under setting [2], 3.63 ± 0.35.
Taken in the same sequence, the figures for GLGAGFGGGFAGGDGLLVGSEKVT [KRT16] were 3.98 ± 0.11 and 4.081 ± 0.035.
